Source: US20200368361A1 (Regeneron, published 2020)

T1: full length human MSR1 with a C-terminal Myc tag on HEK293.Myc.hMSR1 cells (human, UniProt P21757 1-451)
T1 construct: whole, on cells
T1 sequence (looked up): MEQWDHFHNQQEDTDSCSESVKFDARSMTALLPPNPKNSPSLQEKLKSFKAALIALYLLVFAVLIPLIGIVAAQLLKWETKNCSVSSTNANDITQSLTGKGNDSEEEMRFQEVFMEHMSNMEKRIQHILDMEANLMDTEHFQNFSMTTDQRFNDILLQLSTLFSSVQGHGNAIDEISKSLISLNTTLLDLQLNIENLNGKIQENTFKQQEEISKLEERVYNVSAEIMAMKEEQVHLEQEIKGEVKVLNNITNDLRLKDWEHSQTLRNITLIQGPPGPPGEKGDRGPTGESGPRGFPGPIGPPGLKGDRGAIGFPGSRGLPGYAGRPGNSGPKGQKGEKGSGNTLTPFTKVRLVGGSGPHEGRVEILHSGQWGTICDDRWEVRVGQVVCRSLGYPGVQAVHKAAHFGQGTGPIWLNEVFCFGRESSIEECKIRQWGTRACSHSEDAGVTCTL

T2: full length monkey MSR1 on HEK293.mfMSR1 cells (Macaca fascicularis, UniProt A0A2K5UWE2 1-451)
T2 construct: whole, on cells
T2 sequence: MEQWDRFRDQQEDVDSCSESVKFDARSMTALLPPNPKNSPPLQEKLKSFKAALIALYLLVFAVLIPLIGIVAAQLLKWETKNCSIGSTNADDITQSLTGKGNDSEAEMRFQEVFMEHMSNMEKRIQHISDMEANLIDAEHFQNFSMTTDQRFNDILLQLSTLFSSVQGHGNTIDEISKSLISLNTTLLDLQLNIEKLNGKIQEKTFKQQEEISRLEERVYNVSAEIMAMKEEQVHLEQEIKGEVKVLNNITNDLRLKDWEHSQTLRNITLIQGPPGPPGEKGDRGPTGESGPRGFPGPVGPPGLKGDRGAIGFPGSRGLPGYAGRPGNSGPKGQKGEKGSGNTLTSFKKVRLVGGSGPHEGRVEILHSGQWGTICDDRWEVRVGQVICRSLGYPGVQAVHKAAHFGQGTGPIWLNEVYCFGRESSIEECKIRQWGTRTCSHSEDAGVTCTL

T3: mouse MSR1 on RAW264.7 cells (mouse, UniProt P30204 1-458)
T3 construct: whole, on cells
T3 sequence (looked up): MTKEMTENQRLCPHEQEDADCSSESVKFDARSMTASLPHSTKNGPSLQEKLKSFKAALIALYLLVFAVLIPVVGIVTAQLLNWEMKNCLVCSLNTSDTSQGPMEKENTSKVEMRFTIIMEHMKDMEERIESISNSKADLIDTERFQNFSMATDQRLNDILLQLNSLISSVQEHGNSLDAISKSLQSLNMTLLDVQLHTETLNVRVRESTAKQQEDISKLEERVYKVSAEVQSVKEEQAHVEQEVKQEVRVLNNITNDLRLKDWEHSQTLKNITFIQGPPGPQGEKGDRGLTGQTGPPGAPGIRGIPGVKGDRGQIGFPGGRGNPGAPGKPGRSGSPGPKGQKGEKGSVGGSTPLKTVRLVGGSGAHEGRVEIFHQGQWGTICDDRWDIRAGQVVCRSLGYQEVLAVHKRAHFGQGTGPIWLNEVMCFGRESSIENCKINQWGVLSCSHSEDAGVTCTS

T4: human MSR1 extracellular domain expressed with a N-terminal nonahistidine tag (His9-hMSR1); R&D Systems, Cat … (human, UniProt P21757 77-451)
T4 construct: extracellular domain; Bought protein; also called His-hMSR1
T4 sequence: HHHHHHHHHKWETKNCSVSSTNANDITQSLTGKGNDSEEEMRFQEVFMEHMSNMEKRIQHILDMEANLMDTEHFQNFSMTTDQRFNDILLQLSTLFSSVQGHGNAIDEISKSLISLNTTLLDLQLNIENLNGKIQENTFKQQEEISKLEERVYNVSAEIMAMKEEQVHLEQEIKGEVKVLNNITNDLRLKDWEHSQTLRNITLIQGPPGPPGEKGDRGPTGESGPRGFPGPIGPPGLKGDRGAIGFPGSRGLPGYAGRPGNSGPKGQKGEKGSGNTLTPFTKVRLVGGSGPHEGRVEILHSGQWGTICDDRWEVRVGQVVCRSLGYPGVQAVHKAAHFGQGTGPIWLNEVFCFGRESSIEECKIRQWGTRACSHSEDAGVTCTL

T5: monkey MSR1 extracellular domain expressed with a N-terminal hexahistidine-myc-myc tag (HMM-mfMSR1) (monkey (Macaca fascicularis))
T5 chain: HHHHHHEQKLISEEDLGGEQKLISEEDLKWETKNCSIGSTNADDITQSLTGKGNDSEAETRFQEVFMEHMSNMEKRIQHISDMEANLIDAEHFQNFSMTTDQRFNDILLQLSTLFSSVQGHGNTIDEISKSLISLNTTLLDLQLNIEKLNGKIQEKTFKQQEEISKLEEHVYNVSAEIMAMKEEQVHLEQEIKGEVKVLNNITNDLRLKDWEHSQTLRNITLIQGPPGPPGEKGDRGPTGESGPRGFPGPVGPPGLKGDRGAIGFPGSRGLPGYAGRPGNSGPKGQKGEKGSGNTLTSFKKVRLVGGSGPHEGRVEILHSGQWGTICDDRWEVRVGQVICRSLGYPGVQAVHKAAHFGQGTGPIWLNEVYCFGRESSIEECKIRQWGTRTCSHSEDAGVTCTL


Legend:
[1] = target: T1, full length human MSR1 with a …; assay: ECL cell binding, HEK293.Myc.hMSR1
Procedure: (§1) All cells were washed once with 1×PBS with Ca²⁺/Mg²⁺ and counted with a Cellometer™ Auto T4 cell counter (Nexcelom Bioscience). Approximately 1.0×10⁴ cells were seeded separately onto 96-well carbon electrode plates [MULTI-ARRAY high bind plate, Meso Scale Diagnostics] and incubated for 1 hour at 37° C. Non-specific binding sites were then blocked by 2% BSA (w/v) in PBS with Ca²⁺/Mg²⁺ for 1 hour at room temperature. THP-1 cells were pre-incubated for 0.5 hours at room temperature in sample dilution buffer with: 1) 1 mg/mL Fc receptor block reagents to block Fc gamma receptors on THP-1 cell surface [whole molecule human IgG (Jackson Immunoresearch, Cat #009-000-003) for wells being tested with anti-MSR1-mFc antibodies or 2) whole molecule mIgG (Jackson Immunoresearch, Cat #015-000-003) for wells being tested with anti-MSR1-hFc antibodies. Antibody binding on HEK293.Myc.hMSR1, HEK293.mfMSR1 and HEK293 cells was tested without Fc receptor block reagents. […] Plates were then washed to remove unbound antibodies an AquaMax2000 plate washer with a cell washing head (MDS Analytical Technologies). […] Plates were washed and developed with Read Buffer (Meso Scale Diagnostics, Cat #R92TD-2) according to manufacturer's recommended procedure and luminescent signals were recorded with a SECTOR Imager 600 (Meso Scale Diagnostics). Luminescence intensity, measured in relative light units (RLU), was recorded to indicate the binding intensity of each antibody at the range of concentrations.

[2] = target: T2, full length monkey MSR1 on …; assay: ECL cell binding, HEK293.mfMSR1
Procedure: as §1

[3] = target: T3, mouse MSR1 on RAW264.7 cells; assay: flow cytometry, RAW264.7 cells, 10 ug/mL;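 further: antibodies bound to RAW264.7 cells for 30 min on ice after Fc block with mouse IgG, S/N is MFI relative to unstained cells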
Procedure: To block binding to Fc receptors, RAW264.7 cells were incubated for 30 minutes at 4° C. with 500 μg/mL mouse IgG (Jackson ImmunoResearch, Cat #015-000-003) diluted in staining buffer, while B16F10.9 cells remained in staining buffer. Following Fc receptor blocking, 10 μg/mL of anti-MSR1 antibodies or an isotype control antibody were added to the cells and were subsequently incubated for 30 minutes on ice. […] The signal to noise (S/N) was determined by calculating the ratio of the anti-MSR1 antibodies or the control antibodies MFI to the unstained sample MFI (Table 16).

[4] = target: T4, human MSR1 extracellular domain …; assay: SPR Biacore, 25C, mAb captured by anti-human Fc, MSR1 as analyte;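 further: Half-life of complex dissociation derived from kinetic rates, obtained by fitting Biacore 4000 sensorgrams to a 1:1 model including mass transport, run in HBS-ET buffer at pH 7.4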
Procedure: (§2) Binding affinities and kinetic constants of human anti-MSR1 antibodies for different MSR1 reagents were determined by real-time surface plasmon resonance (Biacore 4000). All binding studies were performed in 10 mM HEPES, 150 mM NaCl, 3 mM EDTA, and 0.05% v/v Surfactant Tween-20, pH 7.4 (HBS-ET) running buffer at 25° C. and 37° C.
(§3) The association rate (kₐ) and dissociation rate (kd) were determined by fitting the real-time binding sensorgrams to a 1:1 binding model with mass transport limitation using Scrubber 2.0 c curve-fitting software.

[5] = target: T5, monkey MSR1 extracellular domain …; assay: as above
Procedure: as §2, §3

Row | binding signal ratio to isotype control (11 nM) [1] [fold] | binding signal ratio to isotype control (11 nM) [2] [fold] | MFI [3] | S/N [3] | t½ [4] [min] | t½ [5] [min] | Binder
1 | 33 | 25 | 3520 | 1 | – | – | H1H27762P2-N297Q (antibody, human IgG1, V domains shown, human IgG1 Fc with N297Q; also called H1H27762P-N297Q) VH: QVQLVQSGAEVKKPGSSVKVSCKASGGTFSRYDISWVRQAPGQGLEWMGGIIPIFGTSNYAQKFQGRVTITTDESTSTVYMELSSLRSEDTAVYYCARGGRYGWFDPWGQGTLVTVSS VL: not shown
2 | – | – | – | – | 9 | 13 | H1H27759P-N297Q (antibody, V domains shown, human IgG1 Fc with N297Q point mutation; also called H1H27759P2-N297Q; H1xH27759P2) VH: EVQLVESGGGFVQPGGSLRLSCAASGFTFSSYAMSWVRQAPGKGLEWVSAISGTGSNTYYADSVKGRFTISRDNSKNTLYLQMNSLRAEDTAVYYCAKDRVTTVTYYFDYWGQGTLVTVSS VL: not shown
3 | 23 | 25 | 3290 | 1 | – | – | H1H27759P2-N297Q (antibody, human IgG1, V domains shown, human IgG1 Fc with N297Q; also called H1H27759P-N297Q) VH: EVQLVESGGGFVQPGGSLRLSCAASGFTFSSYAMSWVRQAPGKGLEWVSAISGTGSNTYYADSVKGRFTISRDNSKNTLYLQMNSLRAEDTAVYYCAKDRVTTVTYYFDYWGQGTLVTVSS VL: not shown
4 | – | – | – | – | 11 | 5 | H1H27729P-N297Q (antibody, V domains shown, human IgG1 Fc with N297Q point mutation) VH: QVQLVESGGGLVKPGGSLRLSCAASGFIFSDYYMSWIRQAPGKGLEWVSYISSSGTTIYGDSVKGRFTMSRDNAKNSLYLQMNSLRAEDTAVYYCARNYALFDYWGQGTLVTVSS VL: DIQMTQSPSSLSASVGDRVTITCQASQDISKYLNWYQQKPGKAPKLLIYYTSNLETGVPSRFSGSGSGTDFTFTISSLQPEDIATYYCHQSDYLPFTFGPGTKVDIKR
5 | – | – | – | – | 515 | 247 | H1H27731P-N297Q (antibody, V domains shown, human IgG1 Fc with N297Q point mutation) VH: QLQLQESGPGLVKPSETLSLTCTVSGGSISRISYYWGWIRQPPGKGLEWIGSIYDSGSTYYNPSLKSRVTISIDTSKNQFSLKLSSVTAADTAVYYCVRYSSSSAFAFDYWGQGTLVTVSS VL: DIQMTQSPSSVSASVGDRVTITCRASQGISSWLAWYQQKPGKAPKLLIYAASSLQSGVPSRFSGSGSGTDFTLTISSLQPEDFATYYCQQANSFPFTFGPGTKVDIKR
6 | – | – | – | – | – | 13 | H1H27747P-N297Q (antibody, V domains shown, human IgG1 Fc with N297Q point mutation) VH: QVQLVESGGAVVQPGRSLRLSCAASGFTFSYYGMHWVRQAPGKGLEWVAVISYDGSKKYYADSVKGRFTISRDNSKNTLYLQMNSLRAEDTAVYYCAKDLTVDFYYGMDVWGQGTTVTVSS VL: DIQMTQSPSSVSASVGDRVTITCRASQGISSWLAWYQQKPGKAPKLLIYATSSLQSGAPSRFSGSGSGTDFTLTISSLQPEDFATYFCQQANSFPYTFGQGTKLEIKR
7 | 55 | 53 | 5410 | 1 | – | – | H1H27754P-N297Q (antibody, human IgG1, V domains shown, human IgG1 Fc with N297Q) VH: EVQLVESGGGLVQPGGSLRLSCAASGFTFRTYAMTWVRQAPGKGLDWVSAITGDGGNTYYADSVKGRFTISRDNSKNTLYLQMNSLRAEDTAIYYCAKDQRFSFALYYFDYWGQGTLVTVSS VL: DIQMTQSPSSVSASVGDRVTITCRASQGISSWLAWYQQKPGNAPKLLIYAAFSLQSGVPSRFSGSGSGTDFTLTISSLQPEDFATYYCQQANNFPWTFGQGTKVEIKR
8 | – | – | – | – | 94 | 5 | H1H27756P-N297Q (antibody, V domains shown, human IgG1 Fc with N297Q point mutation) VH: QVQLVESGGGVVQPGRSLRLSCAASGFTFSNYDMHWVRQAPGKGLEWMAVISYDGINKYYADSVKGRFTISRDNSKNTLYLQMNSLRAEDTAVYYCAKGTYSWYFDLWGRGTLVTVSS VL: not shown
9 | – | – | – | – | 10 | 4 | H1H27734P-N297Q (antibody, V domains shown, human IgG1 Fc with N297Q point mutation) VH: EVQLVESRGGLVQPGGSLRLSCAASGFTFSSYAMSWVRQAPGKGLEWVSAISGSGGSTFYADSVKGRFTISRDNSKNTVYLQMNSLRAEDTAVYYCAKALVLRFLEWLGDYWGQGTLVTVSS VL: DIQMTQSPSTLSASVGDRVTITCRASQSISSWLAWFQQKPGKAPKLLIYKASSLESGVPSRFSGSGSGTEFTLTISSLQPDDFATYYCQQYKSYWTFGQGTKVEIKR
10 | – | – | – | – | 38 | 15 | H1H27751P-N297Q (antibody, V domains shown, human IgG1 Fc with N297Q point mutation) VH: EVQLVESGGGLVQPGGSLRLSCAASGFTFSNYAMHWVRQAPGKGLEYVSAISSNGGSTYYADSVKGRITISRDNSKNTLYLQMGSLRAEDMAVYYCARGRPYYYYFGMDVWGQGTTVTVSS VL: not shown
11 | – | – | – | – | 11 | 80 | H1H27739P-N297Q (antibody, V domains shown, human IgG1 Fc with N297Q point mutation) VH: EVQLVESGGGLVQPGGSLRLSCTASGFTFSSYAMSWVRQAPGKGLEWVSAISGTGSSTYFTDSVKGRFAISRDNSKNTLYLQMNSLRAEDTAVYYCAKDGEWLSTVTLFDYWGQGTLVTVSS VL: EIVMTQSPATLSVSPGERATLSCRASQSVSSNLAWYQQKPGQAPRLLIYGASTRATGIPARFSGSGSGTDFTLTISSLQSEDFALYYCQQYFIWPPHPTFGPGTKVDIKR
12 | 20 | 13 | 3810 | 1 | – | – | H1H27766P2-N297Q (antibody, human IgG1, V domains shown, human IgG1 Fc with N297Q; also called H1H27766P-N297Q) VH: EVQLVESGGGLVQPGGSLRLSCAASGFTFSSFAMSWVRQAPGKELEWVSSISGRGGSTYYADSVRGRFTISRDNSKITLYLQMNSLRAEDTAVYYCAKDIVFRYTSSAYWYFDLWGRGTLVTVSS VL: not shown
13 | – | – | – | – | 13 | 16 | H1H27760P-N297Q (antibody, V domains shown, human IgG1 Fc with N297Q point mutation; also called H1H27760P2-N297Q; H1H27760P2) VH: EVQLVESGGGLVQPGRSLRLSCAASGFTFDAYAMHWVRQAPGKGLEWVSGISWNSGSIGYADSVKGRFTISRDNAKNSLYLQMNSLREEDTALYYCAKDKILELYYYGMDVWGQGTTVTVSS VL: not shown
14 | – | – | – | – | 23 | 19 | H1H27761P-N297Q (antibody, V domains shown, human IgG1 Fc with N297Q point mutation; also called H1H27761P2-N297Q; H1H27761P2) VH: EVQLVESGGDLVQPGGSLRLSCSASGFTFNIYAMSWVRQAPGKGLEWVSGISGSGGSTYYADSVKGRFTISRDNSKNTLYFQMNSLRVEDTAVYYCAKKISSSSYYYYAMDVWGQGTTVTVSS VL: not shown
15 | 23 | 15 | 3840 | 1 | – | – | H1H27761P2-N297Q (antibody, human IgG1, V domains shown, human IgG1 Fc with N297Q; also called H1H27761P-N297Q) VH: EVQLVESGGDLVQPGGSLRLSCSASGFTFNIYAMSWVRQAPGKGLEWVSGISGSGGSTYYADSVKGRFTISRDNSKNTLYFQMNSLRVEDTAVYYCAKKISSSSYYYYAMDVWGQGTTVTVSS VL: not shown
